Data on four molecules can be found in US20230303685A1 (ELECTRA THERAPEUTICS, published 2023).

For one test, the target named is T1, human SIRPγ-His monomer (human).
T1 construct: 'SIRP-His monomer protein' of the Octet assay; also called SIRP-His; not shown: His tag
Put plainly: BLI (Octet); antibody on anti-mouse IgG capture tip, SIRP-His monomer; no dissociation seen in 600 s. As for the experimental part: (§1) Select SIRP antibodies were tested for their affinities to human SIRPα, SIRPβ1, and SIRPγ using a biolayer interferometry (BLI) Octet system (Pall ForteBio). Each SIRP antibody with rat or mouse Fc was immobilized on a biosensor tip by an anti-mouse IgG capture (AMC). Antibodies with human Fc were digested with gingipain K enzyme to yield monomeric F(ab′), biotinylated, then coated onto streptavidin biosensors. […] The biosensors were then exposed to wash buffer to measure off-rate kinetics. The resulting kinetic data were analyzed and fitted using a 1:1 binding model with kₒₙ and kdis fitted separately at each SIRP-His protein concentration. KD affinities were calculated as kdis to kₒₙ ratio at each concentration of SIRP-His and averaged.
On the technique in general: Biolayer interferometry detects binding as a change in optical thickness at a sensor tip.

The target in test [1] is T2, human SIRPα V1-His monomer (human, UniProt P78324 31-373, limits assumed).
T2 construct: 'SIRP-His monomer protein' of the Octet assay; also called SIRP-His; not shown: His tag
Put plainly: BLI (Octet); antibody on anti-mouse IgG capture tip, SIRP-His monomer at 100, 33.3, 11.1 nM, 1:1 fit, mean KD. As for the experimental part: as §1

For test [2], the target named is T3, human SIRPα V1 extracellular domain, monomeric (human, UniProt P78324 31-373).
T3 construct: also called hSIRPα V1
Put plainly: SPR (Biacore); antibody captured by anti-IgG on chip, monomeric SIRPα extracellular domain as analyte, 1:1 model. As for the experimental part: (§2) Selected antibodies were tested for their affinities to two hSIRPα variants (V1 and V2), and to cynomolgus monkey (herein referred to as “cyno”) SIRPα. The affinities of these SIRP antibodies were determined using surface plasmon resonance. The SIRP antibodies were flowed onto a chip and captured by an anti-mouse IgG or an anti-human IgG covalently coupled to the surface of the chip. A three-point titration of the extracellular binding domain of hSIRPα was performed per the manufacturer's recommended protocols.
On the technique in general: SPR reads the build-up and loss of mass on a sensor chip optically.

Test [3] deals with T4, cynomolgus monkey SIRPα extracellular domain, monomeric (cynomolgus monkey, UniProt A0A2K5VYQ9 31-372).
T4 construct: extracellular domain; also called Cyno SIRPα
Described as above. As for the experimental part: as §2

Test [4] concerns the target T5, Human SIRPγ conjugated to an Fc region (human).
T5 construct: also called SIRPγ-Fc; SIRP-Fc; not shown: Fc region
Put plainly: BLI blocking; 200 nM antibody pre-incubated with 20 nM SIRPγ-Fc, binding to immobilised CD47-His (competitor), % of response of SIRPγ-Fc alone.

Test [5] concerns the target T6, human SIRPα V2 extracellular domain, monomeric (human, UniProt P78324 31-370).
T6 construct: also called hSIRPα V2
Put plainly: SPR (Biacore); antibody captured by anti-IgG on chip, monomeric SIRPα extracellular domain as analyte, 1:1 model. As for the experimental part:
as §2

In test [6] the target is T7, Human SIRPγ.
T7 construct: also called human SIRPγ extracellular domain, plate-coated
T7 chain: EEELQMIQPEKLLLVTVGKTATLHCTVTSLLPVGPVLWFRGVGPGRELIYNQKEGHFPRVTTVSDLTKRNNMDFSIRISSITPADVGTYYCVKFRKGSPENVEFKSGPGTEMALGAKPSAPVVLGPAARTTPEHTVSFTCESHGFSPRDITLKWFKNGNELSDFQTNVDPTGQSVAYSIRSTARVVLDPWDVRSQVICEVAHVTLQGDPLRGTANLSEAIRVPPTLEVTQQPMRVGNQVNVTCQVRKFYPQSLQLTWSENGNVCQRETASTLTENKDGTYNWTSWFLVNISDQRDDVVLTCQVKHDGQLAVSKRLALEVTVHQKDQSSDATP
Put plainly: ELISA, extracellular domain coated at 1 µg/mL, purified antibody titrated, anti-human IgG, chemiluminescence. As for the experimental part:
(§3) Select SIRP antibodies were purified by Protein G from hybridoma supernatants and analyzed in a titration via ELISA. Briefly, 1 μg/mL of extracellular domain SIRPα was coated onto high protein-binding plates and blocked. Purified antibodies were added in a titration to the coated plates. The antibodies were detected by an anti-rat IgG antibody and a chemiluminescent substrate.
(§4) FIGS. 3A-3C show binding curves of SIRP antibodies and two isotype controls with human Fc to human SIRPα V1, human SIRPβ1, human SIRPγ and cynomolgus monkey SIRPα by ELISA. […] Isotype control 1 was an unrelated human IgG1 antibody with irrelevant CDRs. Isotype control 2 was the same as isotype control 1 but contained the same amino acid substitutions in the Fc region as some of the selected SIRP antibodies for increased FcγR binding (referring to Table 11). DNA was transiently transfected into CHO cells for 7 days. Antibodies were purified by Protein A from cell supernatants and analyzed in a titration via ELISA as previously described in FIGS. 2A-2B using an anti-human IgG antibody as the detection antibody.
(In general: An ELISA detects its analyte on a solid surface through an enzyme-linked reagent.)

Test [7] addresses T3, human SIRPα V1 extracellular domain, …. The test is described as above. As for the experimental part:
as §3, §4

Test [8] addresses T8, Human SIRPβ1/DAP12 CHO.
T8 construct: also called human SIRPβ1 on CHO cells co-transfected with DAP12; copies: 1 + 2
Briefly: flow cytometry, stably transfected CHO cells, antibody titrated, labelled anti-rat or anti-mouse IgG, MFI. As for the experimental part:
(§5) Selected antibodies were tested for binding to stably transfected human SIRPα, SIRPβ1 (co-transfected with DAP12), or SIRPγ Chinese hamster ovary (CHO) cells via flow cytometry. A titration of SIRP antibodies was added to the cells and detected using a fluorescently labelled secondary antibody. Graph depicts the median fluorescence intensity (MFI) at each concentration.

For test [9], the target named is T9, Human SIRPγ CHO.
T9 construct: also called human SIRPγ on CHO cells
T9 chain: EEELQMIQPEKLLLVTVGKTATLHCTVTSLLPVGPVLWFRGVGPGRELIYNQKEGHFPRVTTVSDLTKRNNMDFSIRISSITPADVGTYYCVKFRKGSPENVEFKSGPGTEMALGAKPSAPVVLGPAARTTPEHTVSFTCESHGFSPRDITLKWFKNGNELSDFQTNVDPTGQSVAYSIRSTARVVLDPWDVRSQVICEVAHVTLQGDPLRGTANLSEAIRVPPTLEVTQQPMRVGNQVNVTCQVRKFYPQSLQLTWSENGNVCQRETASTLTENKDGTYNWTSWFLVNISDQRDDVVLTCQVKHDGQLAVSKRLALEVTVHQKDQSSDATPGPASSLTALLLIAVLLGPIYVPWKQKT
The description is as above. As for the experimental part: as §5

The target of test [10] is T10, Human SIRPβ1.
T10 construct: also called human SIRPβ1 extracellular domain, plate-coated
T10 chain: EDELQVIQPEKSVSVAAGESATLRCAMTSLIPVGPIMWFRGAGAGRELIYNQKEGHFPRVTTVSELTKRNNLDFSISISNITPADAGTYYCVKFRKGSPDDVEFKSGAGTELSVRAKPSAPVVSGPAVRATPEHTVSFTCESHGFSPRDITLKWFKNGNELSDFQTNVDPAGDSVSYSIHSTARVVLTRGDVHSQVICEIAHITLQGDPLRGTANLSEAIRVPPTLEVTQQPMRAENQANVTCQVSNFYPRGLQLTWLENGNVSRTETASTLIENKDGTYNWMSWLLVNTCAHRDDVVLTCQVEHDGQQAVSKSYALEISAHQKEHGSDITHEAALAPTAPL
Put plainly: ELISA, extracellular domain coated at 2 µg/mL, purified antibody titrated, anti-rat or anti-mouse IgG, chemiluminescence. As for the experimental part:
(§6) Select SIRP antibodies were purified by Protein G from hybridoma supernatants and analyzed in a titration via ELISA. Briefly, 2 μg/mL of extracellular domain of each of the SIRPs was coated onto high protein-binding plates and blocked. Purified antibodies were added in a titration to the coated plates. The antibodies were detected by an anti-rat IgG or an anti-mouse IgG antibody and a chemiluminescent substrate.

In test [11] the target is T7, Human SIRPγ. Described as above. As for the experimental part: as §6
In test [12] the target is T8, Human SIRPβ1/DAP12 CHO. Put plainly: flow cytometry, stably transfected CHO cells, antibody titrated, labelled anti-human IgG, MFI. As for the experimental part: as §5
T8 sequence (DAP12, as listed by the source limits assumed): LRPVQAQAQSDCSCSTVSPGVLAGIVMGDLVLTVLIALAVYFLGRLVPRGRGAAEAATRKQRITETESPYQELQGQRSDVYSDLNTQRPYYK
The target in test [13] is T9, Human SIRPγ CHO. The description is as above. As for the experimental part: as §5
In test [14] the target is T10, Human SIRPβ1. Put plainly: ELISA, extracellular domain coated at 2 µg/mL, purified antibody titrated, anti-human IgG, chemiluminescence.
A further test addresses T11, Cynomolgus Monkey SIRPβ1 (Macaca fascicularis).
T11 construct: extracellular domain; also called cyno SIRPβ1 extracellular domain, plate-coated
Described as above.

For test [15], the target named is T4, cynomolgus monkey SIRPα extracellular …. The test is described as above.
Test [16] addresses T7, Human SIRPγ. The description is as above.

One may read the Kd as the equilibrium constant for the complex coming apart. What is called EC50 (read off the curve) is the concentration at which the effect is half-maximal.

B1: Antibody 13 (antibody, V domains shown)
VH: EVQMLESGGGLVQPGGSLRLSCAASGFTFSSYAMSWVRQAPGKGLEWVSAISGSGSSTHYADSVKGRFTISRDNSKNTLYLQMNSLRAEDTAVYYCAAYSGSYYYYGMDVWGQGTTVTVSS
VL: EIVMTQSPATLSVSPGERATLSCRASQSVSRNLAWYQQKSGQAPRLLIYGASTRATGIPARFSGSGSGTEFTLTISSLQSEDFAGYYCQQYNNWPYTFGQGTKLEIK
notes: Human variable region, rat IgG2b Fc; from hybridoma
As for B1, the Kd is < 0.001 nM with human SIRPγ-His monomer, 0.922 nM in test [1], 12.6 nM in test [2] and 16.7 nM in test [3]. Besides, in test [4], the “SIRPγ-CD47 Response (%)” value stood at 111%.

B2: Antibody 29 (antibody, V domains shown)
VH: EVQMLESGGGLVQPGGSLRLSCAASGFTFSSYAMSWVRQAPGKGLEWVSAISGSGSSTHYADSVKGRFTISRDNSKNTLYLQMNSLRAEDTAVYYCAAYSGSYYYYGMDVWGQGTTVTVSS
VL: EIVMTQSPATLSVSPGERATLSCRASQSVSRNLAWYQQKSGQAPRLLIYGASTRATGIPARFSGSGSGTEFTLTISSLQSEDFAGYYCQQYNNWPYTFGQGTKLEIK
As to B2, the Kd in [2] turned out to be 8.32 nM; in test [5], 10.3 nM; in test [3] it was 11.1 nM. The “EC50 (read off the curve)” value was ~0.05 µg/mL with Human SIRPγ [6] and ~0.06 µg/mL in [7].

B3: Antibody 12 (antibody, V domains shown)
VH: EVQVLESGGGLVQPGGSLRLSCAASGFTFSSYAMSWVRQAPGKGLEWVSAISGSGSSTHYADSVKGRFTISRDNSKNTLYLQMNSLRAEDTAVYYCAAYSGSYYYYGMDVWGQGTTVTVSS
VL: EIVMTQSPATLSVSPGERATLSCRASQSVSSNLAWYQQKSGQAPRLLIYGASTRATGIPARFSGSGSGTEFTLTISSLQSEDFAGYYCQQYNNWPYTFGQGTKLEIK
notes: as for B1
With B3, the Kd is < 0.001 nM with human SIRPγ-His monomer and 5.31 nM in test [1]. The binding result with Human SIRPβ1/DAP12 CHO [8], in the test with Human SIRPγ CHO [9], with Human SIRPβ1 [10] and with Human SIRPγ [11] was “binds” each time. Moreover, in test [4], the “SIRPγ-CD47 Response (%)” value came out at 120%.

B4: Antibody 28 (antibody, V domains shown)
VH: QVQLQESGPGLVKPSGTLSLTCAVSGGSISSSNWWSWVRQPPGKGLEWIGEIYHSGSTNYNPSLKSRVTISVDKSKNQFSLKLSSVTAADTAVYYCARRGIWFGVGPWGQGTLVTVSS
VL: DIVMTQSPLSLPVTPGEPASISCRSSQSLLHGNGFNYLDWYLQKPGQSPQLLIYLGSNRASGVPDRFTGSGSGTDFTLKISRVEAEDVGVYYCMQGLQTPRTFGQGTKVEIK
Take B4: the “EC50 (read off the curve)” value is ~0.4 µg/mL with Human SIRPβ1/DAP12 CHO [12]; ~0.3 µg/mL with Human SIRPγ CHO [13]; ~0.04 µg/mL with Human SIRPγ [6]; ~0.04 µg/mL with Human SIRPβ1 [14]; ~0.04 µg/mL with Cynomolgus Monkey SIRPβ1; ~0.04 µg/mL in test [15]. Further, the “EC50 (read off the curve)” value with Human SIRPγ [16] was ~0.03 µg/mL. The Kd in [2] worked out at 311 nM; in test [5], 373 nM; in test [3], 361 nM. Also, the “SIRPγ-CD47 Response (%)” value in [4] was found to be 144%.
